Data on one substance can be found in PMC3937308.

In this series the target is 6HisRsmA (RsmAxcc) (Xanthomonas citri subsp. citri strain 306) (UniProt Q8PLP9). The experiment in a line: EMSA. The note with it: 10 mM HEPES pH 7.3, 20 mM KCl, 1 mM MgCl2, 1 mM DTT, 5% glycerol, 0.1 µg/µL yeast tRNA, 20 U RNasin, 25 °C 20 min; 5% native PAGE. On the technique in general: Mobility shift assays separate free from complexed probe on a gel.
6HisRsmA (RsmAxcc) (Xanthomonas citri subsp. citri strain 306), sequence (Q8PLP9 whole entry): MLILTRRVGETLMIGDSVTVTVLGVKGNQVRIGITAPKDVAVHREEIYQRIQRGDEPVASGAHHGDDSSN

Take hrpG 54-189: the binding signal (fold less shift than hrpG 1-189) came out at 8.
